Experimental data published in US20220372150A1 (ZHEJIANG DOER BIOLOGICS, published 2022).

Tests used:
[1] = target: T1, PDL1-HSA fusion protein composed of PDL1 extracellular domain and human serum albumin (human); test: ELISA, VHH at 1 µg/mL on coated PDL1-HSA, anti-his detection
T1 construct: The entry is the whole fusion: PD-L1 extracellular domain, linker, human serum albumin; also called Human PDL1-HSA; hPDL1-HSA
Procedure: (§1) Human PDL1-HSA or HSA (purchased from Sigma) was coated onto a plate in an amount of 200 ng/well at 4° C., and blocked with 5% skimmed milk powder for 1 hr at room temperature. The purified anti-PDL1single-domain antibody with a histidine-tag was diluted to 1 μg/mL, added to the plate in an amount of 100 μL/well, and incubated at 37° C. for 1 hr. After washing three times with PBST, 100 μl/well of 1:5000 diluted mouse anti-his tag antibody (R&D Systems Inc.) was added, and the plate was incubated at room temperature for 1 hr. After washing with PBST, 100 μwell of 1:10000 diluted HRP-Goat anti mouse IgG antibody (Thermo Scientific) was added, and the plate was incubated at room temperature for 1 hr. After washing with PBST, a TMB developing solution (Beijing ComWin Biotech Co., Ltd) was added for color development, and the OD value was read at 450 nm.

[2] = target: T2, HSA (purchased from Sigma) (human, UniProt P02768 25-609); test: ELISA, VHH at 1 µg/mL on coated HSA, anti-his detection
T2 construct: Control coating for the fusion partner of PDL1-HSA; also called human serum albumin
T2 sequence (P02768 25-609 limits assumed): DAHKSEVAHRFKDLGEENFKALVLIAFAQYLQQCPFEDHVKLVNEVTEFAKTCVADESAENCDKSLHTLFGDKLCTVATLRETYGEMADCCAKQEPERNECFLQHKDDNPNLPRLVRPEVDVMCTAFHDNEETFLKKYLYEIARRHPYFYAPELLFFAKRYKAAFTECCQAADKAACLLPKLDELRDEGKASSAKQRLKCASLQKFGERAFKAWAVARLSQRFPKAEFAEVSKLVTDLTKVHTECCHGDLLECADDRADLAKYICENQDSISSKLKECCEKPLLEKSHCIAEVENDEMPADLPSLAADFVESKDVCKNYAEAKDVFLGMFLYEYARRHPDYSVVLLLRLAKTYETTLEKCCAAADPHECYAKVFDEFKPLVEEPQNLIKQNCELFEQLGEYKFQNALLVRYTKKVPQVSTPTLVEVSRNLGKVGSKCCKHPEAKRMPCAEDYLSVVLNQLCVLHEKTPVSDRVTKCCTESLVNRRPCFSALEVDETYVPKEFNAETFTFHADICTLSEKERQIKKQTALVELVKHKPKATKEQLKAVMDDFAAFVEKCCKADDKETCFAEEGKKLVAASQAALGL
Procedure: as §1

[3] = target: T3, Mouse mPDL1-HSA fusion protein (mouse); test: ELISA on coated mPDL1-HSA, anti-his detection
T3 construct: The entry is the whole fusion of mouse PD-L1 with HSA; also called mouse PDL1
T3 sequence (chain, as listed by the source limits assumed): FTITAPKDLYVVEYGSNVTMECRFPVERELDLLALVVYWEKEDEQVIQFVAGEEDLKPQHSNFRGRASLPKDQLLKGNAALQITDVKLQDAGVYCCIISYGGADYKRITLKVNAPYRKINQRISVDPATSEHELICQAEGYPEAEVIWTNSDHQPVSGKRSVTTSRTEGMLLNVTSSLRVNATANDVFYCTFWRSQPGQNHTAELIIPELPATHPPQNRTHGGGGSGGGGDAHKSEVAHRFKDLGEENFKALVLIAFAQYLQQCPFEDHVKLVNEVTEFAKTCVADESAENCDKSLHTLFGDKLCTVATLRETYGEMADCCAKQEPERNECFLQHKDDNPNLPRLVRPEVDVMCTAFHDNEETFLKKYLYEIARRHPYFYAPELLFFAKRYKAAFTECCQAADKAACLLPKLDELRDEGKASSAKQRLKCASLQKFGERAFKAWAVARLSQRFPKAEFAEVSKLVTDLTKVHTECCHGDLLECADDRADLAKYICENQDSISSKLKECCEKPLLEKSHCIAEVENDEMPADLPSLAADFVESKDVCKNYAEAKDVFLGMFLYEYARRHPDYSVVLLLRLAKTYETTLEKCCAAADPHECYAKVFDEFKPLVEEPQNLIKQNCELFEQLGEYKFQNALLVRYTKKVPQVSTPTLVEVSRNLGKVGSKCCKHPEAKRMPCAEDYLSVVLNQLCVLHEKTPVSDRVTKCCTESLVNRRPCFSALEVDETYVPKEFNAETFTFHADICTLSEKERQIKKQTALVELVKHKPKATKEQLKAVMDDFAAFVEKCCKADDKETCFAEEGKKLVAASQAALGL
Procedure: Mouse mPDL1-HSA fusion protein (SEQ ID NO: 52) was coated onto a plate overnight in an amount of 200 ng/ well at 4° C., and blocked with 5% skimmed milk powder for 1 hr at room temperature. The purified histidine-tagged anti-PDL1single-domain antibody was diluted to 1 μg/mL, then added to the plate in an amount of 100 μL/well, and incubated at 37° C. for 1 hr. After washing three times with PBST, 100 μl/well of 1:5000 diluted mouse anti his tag antibody (R&D Systems Inc) was added, and the plate was incubated at room temperature for 1 hr. After washing with PBST, 100 μl/well of 1:10000 diluted HRP-Goat anti mouse IgG antibody (Thermo Scientific) was added, and the plate was incubated at room temperature for 1 hr. After washing with PBST, TMB was added for color development, and the OD value was detected at 450 nm.

[4] = target: T1, PDL1-HSA fusion protein composed of …; test: competitive ELISA on coated PDL1-HSA; competitor PD1-Fc (4.8 µg/mL, mixed in equal volume)
Procedure: PDL1-HSA was coated onto a plate overnight in an amount of 200 ng/well at 4° C., and blocked with 5% skimmed milk powder for 1 hr at room temperature. […] 100 μl was added per well and incubated at 37° C. for 1 hr. After washing three times with PBST, 100 μl of 1:20000 diluted HRP-Goat anti-Human IgG Fc(Novex) was added to each well, and incubated at room temperature for 1 hr. After washing three times with PBS, TMB substrate was added, and the plated was incubated at 37° C. After incubation for 5 min to develop color, 1 M sulfuric acid was added to stop the reaction. The OD value was read at 450 nm, and the half maximal inhibitory concentration (IC50 value) was calculated.

T1 sequence (chain, as listed by the source limits assumed): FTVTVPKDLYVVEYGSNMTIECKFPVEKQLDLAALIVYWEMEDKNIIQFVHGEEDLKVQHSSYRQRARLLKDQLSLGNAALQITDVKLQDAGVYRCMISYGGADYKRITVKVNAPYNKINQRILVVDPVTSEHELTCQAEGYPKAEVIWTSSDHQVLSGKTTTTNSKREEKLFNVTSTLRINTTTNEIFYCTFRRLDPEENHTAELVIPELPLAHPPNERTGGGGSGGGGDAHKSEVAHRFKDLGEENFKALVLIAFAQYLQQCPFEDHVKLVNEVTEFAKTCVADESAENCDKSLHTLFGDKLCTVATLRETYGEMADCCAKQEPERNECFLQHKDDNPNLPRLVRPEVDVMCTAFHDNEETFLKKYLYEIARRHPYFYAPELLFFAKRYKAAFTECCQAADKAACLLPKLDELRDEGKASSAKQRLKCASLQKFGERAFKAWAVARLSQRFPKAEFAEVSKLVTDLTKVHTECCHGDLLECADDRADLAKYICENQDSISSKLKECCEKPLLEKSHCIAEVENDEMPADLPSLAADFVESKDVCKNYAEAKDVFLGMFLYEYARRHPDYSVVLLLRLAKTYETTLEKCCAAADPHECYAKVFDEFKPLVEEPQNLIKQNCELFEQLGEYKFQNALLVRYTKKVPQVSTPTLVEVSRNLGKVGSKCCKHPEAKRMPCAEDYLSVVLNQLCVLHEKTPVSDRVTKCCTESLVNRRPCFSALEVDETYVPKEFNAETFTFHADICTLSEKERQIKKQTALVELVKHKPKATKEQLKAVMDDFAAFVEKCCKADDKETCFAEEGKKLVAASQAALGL

Binder	OD450 nm [1]	OD450 nm [2]	binding result [3]	IC50 [4]
anti-PDL1 single-domain antibody 1G10, histidine-tagged (VHH, not shown: C-terminal histidine tag) VHH: QVQLVESGGGLVQAGGSLRLSCAASGRPFITYAMGWFRQAPGKEREFVAAINWSGSITAYADSVKGRFTISRDNAKNAAYLQMNSLKPDDTAVYYCASKRTAVAPRALNDYDFWGQGTQVTVSS	2.08 OD450 nm	0.073 OD450 nm	no binding (tested: 1 µg/mL)	0.0628 µg/mL
anti-PDL1 single-domain antibody 6F1, histidine-tagged (VHH, not shown: C-terminal histidine tag) VHH: QLQLVESGGGLVQPGGSLRLSCAASGRTFSTHSMHWFRQAPEKERVFVAAINWNGDSTYYADSVKGRFTISRDNSKNTVDLQMNNLKPEDTAVYVCAARPGAPSTIVAMLDYWGQGTQVTVSS	2.05 OD450 nm	0.081 OD450 nm	no binding (tested: 1 µg/mL)	0.0527 µg/mL
anti-PDL1 single-domain antibody 1D1, histidine-tagged (VHH, not shown: C-terminal histidine tag) VHH: QLQLVESGGGLVQAGGSLRLSCAASGGTFITYAMGWFRQAPGKDREFVAGISWSGSSTYYTDSVKGRFTISRDNAKNTVYLQMNSLKPGDTAVYYCAAKISGATREHLMTSYDYWGQGTQVTVSS	2.01 OD450 nm	0.074 OD450 nm	no binding (tested: 1 µg/mL)	0.0452 µg/mL
anti-PDL1 single-domain antibody 5A8, histidine-tagged (VHH, not shown: C-terminal histidine tag) VHH: QLQLVESGGGLVQPGGSLRLSCAASGGTFITYAMGWFRQAPGKDREFVAGISWSGSSTYYTDSVKGRFTISRDNAQNTVYLQMNSRKPGDTAVYYCAAKISGATREHLRTSYDYGGQGTQVTVSS	2.02 OD450 nm	0.064 OD450 nm	no binding (tested: 1 µg/mL)	0.0436 µg/mL

Further lines, results first:

OD450 nm [1]	OD450 nm [2]	binding result [3]	IC50 [4]	Binder
2.05 OD450 nm	0.082 OD450 nm	no binding (tested: 1 µg/mL)	0.0505 µg/mL	anti-PDL1 single-domain antibody 1A7, histidine-tagged (VHH, not shown: C-terminal histidine tag) VHH: QLQLVESGGDLVQPGGSLRLSCAASGSIFSANLIDWYRQPPGKQRELVAVISSRGITSYADSVKGRFTISRDNAKNTVYLQMNSLKPEDTAVYYCHLFHTDGLGYWGQGTQVTVSS
2.15 OD450 nm	0.076 OD450 nm	no binding (tested: 1 µg/mL)	0.0551 µg/mL	anti-PDL1 single-domain antibody 1D7, histidine-tagged (VHH, not shown: C-terminal histidine tag) VHH: QVQLVESGGGLVQPGGSLRLSCAASGRAFLTYAMGWFRQAPGKEREFVAAISWSGSSTYYADSVKGRFTISRDNAKNMVYLQMNSLKPEDTAVYYCAAKVSGATRDHLMTTYDYWGQGTQVTVSS
